Laboratory results: US20100093623A1, “COMPOSITIONS AND METHODS FOR […]-LIKE RECEPTOR ACTIVITY AND USES THEREOF” (Burnham Institute for Medical Research, priority 2008, published 2010)

Target: T1, NLRP1 (Homo sapiens, UniProt Q9C000)
T1 sequence (Q9C000 1-1473): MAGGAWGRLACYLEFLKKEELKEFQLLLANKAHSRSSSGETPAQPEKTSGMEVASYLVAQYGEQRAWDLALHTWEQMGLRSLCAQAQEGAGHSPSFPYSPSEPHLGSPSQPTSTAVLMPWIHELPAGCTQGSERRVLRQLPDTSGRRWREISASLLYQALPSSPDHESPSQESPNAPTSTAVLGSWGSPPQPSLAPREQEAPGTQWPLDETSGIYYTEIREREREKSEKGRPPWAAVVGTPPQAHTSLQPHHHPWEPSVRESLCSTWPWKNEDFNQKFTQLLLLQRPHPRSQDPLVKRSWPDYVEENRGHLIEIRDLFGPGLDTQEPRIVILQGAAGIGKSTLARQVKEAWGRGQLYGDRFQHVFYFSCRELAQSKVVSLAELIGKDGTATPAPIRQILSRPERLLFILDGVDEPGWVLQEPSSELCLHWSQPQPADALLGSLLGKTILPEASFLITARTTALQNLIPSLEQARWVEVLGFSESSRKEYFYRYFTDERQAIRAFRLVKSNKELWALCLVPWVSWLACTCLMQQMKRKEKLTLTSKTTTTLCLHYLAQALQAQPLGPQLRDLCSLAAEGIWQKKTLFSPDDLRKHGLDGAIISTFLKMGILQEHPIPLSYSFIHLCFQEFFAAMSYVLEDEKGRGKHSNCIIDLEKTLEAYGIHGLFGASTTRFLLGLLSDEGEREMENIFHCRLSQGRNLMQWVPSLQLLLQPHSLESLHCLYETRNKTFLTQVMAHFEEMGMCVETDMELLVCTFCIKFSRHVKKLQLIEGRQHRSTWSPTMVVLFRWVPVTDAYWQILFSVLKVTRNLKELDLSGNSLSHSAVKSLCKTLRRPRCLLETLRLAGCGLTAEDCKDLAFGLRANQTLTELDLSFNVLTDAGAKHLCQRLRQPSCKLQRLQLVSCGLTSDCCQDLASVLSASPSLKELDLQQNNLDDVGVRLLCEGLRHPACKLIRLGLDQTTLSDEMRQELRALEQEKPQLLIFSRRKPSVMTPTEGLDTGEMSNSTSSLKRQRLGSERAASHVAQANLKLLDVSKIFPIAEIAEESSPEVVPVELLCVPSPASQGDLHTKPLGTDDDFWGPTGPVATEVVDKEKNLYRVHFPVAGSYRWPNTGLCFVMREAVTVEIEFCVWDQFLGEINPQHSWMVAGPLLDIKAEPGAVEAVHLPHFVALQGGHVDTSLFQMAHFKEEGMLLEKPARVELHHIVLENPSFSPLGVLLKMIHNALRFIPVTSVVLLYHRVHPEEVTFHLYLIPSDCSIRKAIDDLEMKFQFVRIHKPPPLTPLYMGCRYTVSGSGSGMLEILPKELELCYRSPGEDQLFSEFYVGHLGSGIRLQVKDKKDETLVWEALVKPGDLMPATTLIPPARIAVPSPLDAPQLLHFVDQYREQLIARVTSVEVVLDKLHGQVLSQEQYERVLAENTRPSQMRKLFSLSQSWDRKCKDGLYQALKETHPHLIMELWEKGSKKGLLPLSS
Assay: FITC-ATP binding to NLRP1 by fluorescence polarization assay (FPA)
Settings: protein 1 μM at excess; NLRP1 0.125 μM; FITC-ATP 10 nM; MDP-LD 1 μM

B1: Bid: control protein (Bcl-2 family) (protein, UniProt P55957 1-195, looked up)
BH3-interacting domain death …: MDCEVNNGSSLRDECITNLLVFGFLQSCSDNSFRRELDALGHELPVLAPQWEGYDELQTDGNRSSHSRLGRIEADSESQEDIIRNIARHLAQVGDSMDRSIPPGLVNGLALQLRNTSRSEEDRNRDLATALEQLLQAYPRDMEKEKTMLVLALLLAKKVASHTPSLLRDVFHTTVNFINQNLRTYVRSLARNGMD
reduction of FITC-ATP binding to NLRP1: negligible effects
